Source: patent US10488411B2, “Inflammasome activation in myelodysplastic syndromes” (H. LEE MOFFITT CANCER CENTER AND RESEARCH INSTITUTE, INC., priority 2015, dated 2019)

Tests used:
[1] = tested on: pyroptosis-related gene expression; experiment: qPCR of pyroptosis-related gene expression in lower-risk MDS BM-MNC; format: cell-based, human; conditions: lower-risk MDS BM-MNC (n=5), 24 hours, versus autologous BM plasma alone
Method: Real-time quantitative PCR. RNA was isolated from BM-MNC using the RNeasy Mini Kit (Qiagen). cDNA was produced using the iScript cDNA Synthesis Kit (Bio-Rad). Sequences for primers can be found in Table 1. GAPDH mRNA was used for transcript normalization. cDNA was amplified using the iQ SYBR Green Supermix and the CFX96 Real-Time PCR Detection System (Bio-Rad). PCR conditions were as follows: 10 minutes at 95° C., followed by 40 cycles of amplification (15 seconds at 95° C. and 1 minute at 60° C.). Relative gene expression was calculated using the −2^ΔΔCt method.

MDS BM-MNC = experiment: Pyroptosis flow cytometry panel (a-caspase-1+/annexin-V+) in MDS BM-MNC incubated with autologous BM plasma; format: cell-based, human
Method: Pyroptosis flow cytometry panel. For human samples, treated and untreated BM-MNC were incubated overnight in IMDM, supplemented with 10% autologous BM plasma. Subsequently, cells were harvested, washed twice in 1×PBS, and stained with LIVE/DEAD Violet fluorescent reactive dye according to the manufacturer's protocol (Life Technologies). Cells were resuspended in 1×PBS with 2% BSA, and incubated at room temperature for 15 minutes to block non-specific binding. After washing, cells were stained with 30× FAM-FLICA® Caspase-1 and Caspase-3/7 solution at a ratio of 1:30 for 2 hours at 37° C. Cells were washed and stained for cell surface receptors using CD38:PE-CF594, CD33:BV711, CD34:APC (BD Biosciences), and CD71:PE-Cyanine7 (eBioscience). All antibodies were diluted 1:20, and cells were stained for 30 minutes at 4° C. Cells were washed, resuspended in 1× binding buffer, and stained with Annexin-V:Cy5.5 at a dilution of 1:20 for 15 minutes at room temperature (BD Biosciences). 1× binding buffer was added to a final volume of 400 μL. Sample acquisitions were carried out using a BD LSR II flow cytometer and FACSDiva software (BD Biosciences). Calibration of the flow cytometer was carried out prior to each experiment using Rainbow Mid-Range Fluorescent Particles (BD Biosciences). To establish fluorescence compensation settings, ArC Amine Reactive Compensation Beads were used for LIVE/DEAD Violet staining (Life Technologies), and BD CompBead Plus Anti-Mouse Ig κ/Negative Control (BSA) Compensation Plus Particles were used for surface receptor conjugates (BD Biosciences). Data were analyzed using FlowJo 9.7.5 software (FlowJo, LLC, Ashland, Oreg.).

MDSC fraction (MDS BM-MNC; short-term treatment of MDS BM-MNC): significantly reduced
B1: CD33-IgG1: S100A9 high-affinity chimeric (CD33-IgG1) decoy receptor (protein)
chain: DPNFWLQVQESVTVQEGLCVLVPCTFFHPIPYYDKNSPVHGYWFREGAIISRDSPVATNKLDQEVQEETQGRFRLLGDPSRNNCSLSIVDARRRDNGSYFFRMERGSTKYSYKSPQLSVHVTDLTHRPKILIPGTLEPGHSKNLTCSVSWACEQGTPPIFSWLSAAPTSLGPRTTHSSVLIITPRPQDHGTNLTCQVKFAGAGVTTERTIQLNVTYVPQNPTTGIFPGDGSGKQETRAGVVH
modifications: left off: a dimerising Fc or GST
CASP3 expression [1]: markedly reduced | expression of CASP1 [1]: reduced | expression of IL-1β [1]: reduced | expression of IL-18 [1]: reduced | expression of NLRP3 [1]: reduced | reduction of fraction of pyroptotic cells, maximum lineage-specific change, CD33+ cells (MDS BM-MNC; CD33+ immature myeloids, 0.5 μg CD33-IgG1 or 0.1 μM IRAK4 inhibitor, 24 hours, autologous BM plasma): 68% | reduction of fraction of pyroptotic cells, maximum lineage-specific change, CD71+ cells (MDS BM-MNC; CD71+ erythroids, 0.5 μg CD33-IgG1 or 0.1 μM IRAK4 inhibitor, 24 hours, autologous BM plasma): 64% | fraction of pyroptotic cells across all lineages studied (MDS BM-MNC; MDS BM-MNC (n=4) with autologous BM plasma, 0.5 μg CD33-IgG1 or 0.1 μM IRAK4 inhibitor, 24 hours): marked reduction | reduction of fraction of pyroptotic cells, maximum lineage-specific change, progenitor cells (MDS BM-MNC; progenitor cells (CD34+CD38+), 0.5 μg CD33-IgG1 or 0.1 μM IRAK4 inhibitor, 24 hours, autologous BM plasma): 23% | reduction of fraction of pyroptotic cells, maximum lineage-specific change, stem cells (MDS BM-MNC; stem cells (CD34+CD38-), 0.5 μg CD33-IgG1 or 0.1 μM IRAK4 inhibitor, 24 hours, autologous BM plasma): 44%
